B1: Kinesin-like protein KIF23 (Homo sapiens), Q02241 (parent)
chain: MKSARAKTPRKPTVKKGSQTNLKDPVGVYCRVRPLGFPDQECCIEVINNTTVQLHTPEGYRLNRNGDYKETQYSFKQVFGTHTTQKELFDVVANPLVNDLIHGKNGLLFTYGVTGSGKTHTMTGSPGEGGLLPRCLDMIFNSIGSFQAKRYVFKSNDRNSMDIQCEVDALLERQKREAMPNPKTSSSKRQVDPEFADMITVQEFCKAEEVDEDSVYGVFVSYIEIYNNYIYDLLEEVPFDPIKPKPPQSKLLREDKNHNMYVAGCTEVEVKSTEEAFEVFWRGQKKRRIANTHLNRESSRSHSVFNIKLVQAPLDADGDNVLQEKEQITISQLSLVDLAGSERTNRTRAEGNRLREAGNINQSLMTLRTCMDVLRENQMYGTNKMVPYRDSKLTHLFKNYFDGEGKVRMIVCVNPKAEDYEENLQVMRFAEVTQEVEVARPVDKAICGLTPGRRYRNQPRGPVGNEPLVTDVVLQSFPPLPSCEILDINDEQTLPRLIEALEKRHNLRQMMIDEFNKQSNAFKALLQEFDNAVLSKENHMQGKLNEKEKMISGQKLEIERLEKKNKTLEYKIEILEKTTTIYEEDKRNLQQELETQNQKLQRQFSDKRRLEARLQGMVTETTMKWEKECERRVAAKQLEMQNKLWVKDEKLKQLKAIVTEPKTEKPERPSRERDREKVTQRSVSPSPVPLSSNYIAQISNGQQLMSQPQLHRRSNSCSSISVASCISEWEQKIPTYNTPLKVTSIARRRQQEPGQSKTCIVSDRRRGMYWTEGREVVPTFRNEIEIEEDHCGRLLFQPDQNAPPIRLRHRRSRSAGDRWVDHKPASNMQTETVMQPHVPHAITVSVANEKALAKCEKYMLTHQELASDGEIETKLIKGDIYKTRGGGQSVQFTDIETLKQESPNGSRKRRSSTVAPAQPDGAESEWTDVETRCSVAVEMRAGSQLGPGYQHHAQPKRKKP
B2: Kinesin-like protein KIF23 (Homo sapiens), Q02241 (parent)
chain: B1 chain
partner: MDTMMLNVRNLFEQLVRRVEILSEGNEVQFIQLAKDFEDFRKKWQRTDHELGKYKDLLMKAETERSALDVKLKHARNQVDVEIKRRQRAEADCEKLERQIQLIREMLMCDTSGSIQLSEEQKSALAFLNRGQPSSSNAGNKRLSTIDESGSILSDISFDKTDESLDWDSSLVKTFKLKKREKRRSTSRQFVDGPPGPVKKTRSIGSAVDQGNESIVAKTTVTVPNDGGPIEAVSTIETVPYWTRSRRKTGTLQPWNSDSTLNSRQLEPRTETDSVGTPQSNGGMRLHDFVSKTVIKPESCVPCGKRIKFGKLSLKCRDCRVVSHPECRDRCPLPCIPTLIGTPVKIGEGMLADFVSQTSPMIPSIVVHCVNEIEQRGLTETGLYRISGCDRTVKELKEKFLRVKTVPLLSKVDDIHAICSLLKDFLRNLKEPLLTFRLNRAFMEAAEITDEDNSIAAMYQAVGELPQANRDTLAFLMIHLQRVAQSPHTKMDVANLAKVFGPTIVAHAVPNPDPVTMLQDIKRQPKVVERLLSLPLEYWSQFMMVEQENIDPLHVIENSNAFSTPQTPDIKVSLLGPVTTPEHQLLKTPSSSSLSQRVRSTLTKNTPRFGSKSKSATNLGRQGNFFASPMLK
B3: ADP-ribosylation factor 6 (Homo sapiens), P62330 (parent)
chain: MGKVLSKIFGNKEMRILMLGLDAAGKTTILYKLKLGQSVTTIPTVGFNVETVTYKNVKFNVWDVGGQDKIRPLWRHYYTGTQGLIFVVDCADRDRIDEARQELHRIINDREMRDAIILIFANKQDLPDAMKPHEIQEKLGLTRIRDRNWYVQPSCATSGDGLYEGLTWLTSNYKS
partner: B1 chain

Variants of: B1
Details: with arf6_human ARF6, P62330

effect of a mutation on the interaction	Variant
disrupting interaction	T873A

Variants of: B1
Details: with arf6_human ARF6, P62330
Remark: another data set of the same source

effect of a mutation on the interaction	Variant
decreasing interaction	T873A

Variants of: B1
Details: with arf6_human ARF6, P62330
Remark: another data set of the same source

effect of a mutation on the interaction	Variant
disrupting interaction	K877A

Variants of: B1
Details: with arf6_human ARF6, P62330
Remark: another data set of the same source

effect of a mutation on the interaction	Variant
decreasing interaction	K877A

Variants of: B1
Details: with arf6_human ARF6, P62330
Remark: another data set of the same source

effect of a mutation on the interaction	Variant
disrupting interaction	E864A

Variants of: B1
Details: with arf6_human ARF6, P62330
Remark: another data set of the same source

effect of a mutation on the interaction	Variant
disrupting interaction	V890A

Variants of: B1
Details: with arf6_human ARF6, P62330
Remark: another data set of the same source

effect of a mutation on the interaction	Variant
decreasing interaction	V890A

Variants of: B1
Details: with arf6_human ARF6, P62330
Remark: another data set of the same source

effect of a mutation on the interaction	Variant
disrupting interaction	L860A

Variants of: B1
Details: with arf6_human ARF6, P62330
Remark: another data set of the same source

effect of a mutation on the interaction	Variant
decreasing interaction	L860A

Variants of: B1
Details: with arf6_human ARF6, P62330
Remark: another data set of the same source

effect of a mutation on the interaction	Variant
disrupting interaction	L794A

Variants of: B1
Details: with arf6_human ARF6, P62330
Remark: another data set of the same source

effect of a mutation on the interaction	Variant
disrupting interaction	E896A

Variants of: B1
Details: with arf6_human ARF6, P62330
Remark: another data set of the same source

effect of a mutation on the interaction	Variant
disrupting interaction	Y858A

Variants of: B1
Details: with arf6_human ARF6, P62330
Remark: another data set of the same source

effect of a mutation on the interaction	Variant
disrupting interaction	T779A

Variants of: B1
Details: with arf6_human ARF6, P62330
Remark: another data set of the same source

effect of a mutation on the interaction	Variant
decreasing interaction	T779A

Variants of: B1
Details: with arf6_human ARF6, P62330
Remark: another data set of the same source

effect of a mutation on the interaction	Variant
disrupting interaction	Q863A

Variants of: B1
Details: with arf6_human ARF6, P62330
Remark: another data set of the same source

effect of a mutation on the interaction	Variant
decreasing interaction	Q863A

Variants of: B1
Details: with arf6_human ARF6, P62330
Remark: another data set of the same source

effect of a mutation on the interaction	Variant
disrupting interaction	F892A

Variants of: B2
Details: with rgap1_human RACGAP1, Q9H0H5

effect of a mutation on the interaction	Variant
increasing interaction	V890A

Variants of: B2
Details: with rgap1_human RACGAP1, Q9H0H5
Remark: another data set of the same source

effect of a mutation on the interaction	Variant
increasing interaction	S814A

Variants of: B3
Details: with kif23_human KIF23, Q02241

effect of a mutation on the interaction	Variant
disrupting interaction	T27N

From IntAct's records for PubMed 22580824
